From the DeepSol protein solubility set come the findings set out here.

The series in a line: soluble on expression in E. coli; label from the status in PepcDB or PDB records.
For the sequence “MHHHHHHLTKVFGSRNDRTLRRMRKVVNIINAMEPEMEKLSDEELKGKTAEFRARLEKGEVLENLIPEAFAVVREASKRVFGMRHFDVQLLGGMVLNERCIAEMRTGEGKTLTATLPAYLNALTGKGVHVVTVNDYLAQRDAENNRPLFEFLGLTVGINLPGMPAPAKREAYAADITYGTNNEYGFDYLRDNMAFSPEERVQRKLHYALVDEVDSILIDEARTPLIISGANQTLASITFQNYFRLYEKLAGMTGTADTEAFEFSSIYKLDTVVVPTNRPMIRKDLPDLVYMTEAEKIQAIIEDIKERTAKGQPVLVGTISIEKSELVSNELTKAGIKHNVLNAKFHANEAAIVAQAGYPAAVTIATNMAGRGTDIVLGGSWQAEVAALENPTAEQIEKIKADWQVRHDAVLEAGGLHIIGTERHESRRIDNQLRGRSGRQGDAGSSRFYLSMEDALMRIFASDRVSGMMRK”, the “soluble on expression in E. coli” value is reported as “soluble”.
Turning to “MGSDKIHHHHHHLKAIKYGVTREHIREFKVALTDGKVYKFGSKSVKSSSGYSLNDLIIGSEGTLGVITEAVLRLYPRPKHALNAIIPFPTLDDAIESVPAILASGVEYMGRKVLNLWEKYYDATFPIKEGDGFIILGIDSFTASDAEAQLAQALEAVKPFHALKETVLNAESDEAKTIWDAREKLLLAIQKSTPKMDEVDVSVPINKIPLVLHRIEELEKEEDMRIPNFGHAGDGNLHIYLCSDDMTDEEFAKKGDNVISELYKTAKSVDGNMSGEHGVGYARQNYYEDFYGKDYTDLLRKVKGLFDPKGILNPDKIFPLD”, the “soluble on expression in E. coli” value is “not soluble”.
For “MTGILDSVNQRTQLVGQNRLELLTFRLMGRQRYGINVFKVKEVLQCPKLTSMPNLHPLVKGIAHIRGHTVSVIDLSLAIGGRPTTDIDKCFVVIAEFNRTIQAFLVSSVERIINMHWEAILPPPDGAGKAHYLTAVTNIDNELVEILDVEKILAEIAPVDETMDSTIGEEIAQAEQEKPIVR”, the “soluble on expression in E. coli” value is listed as “not soluble”.
Regarding “MGQMFGVACIDEQSGIVGQAWNNNSVRYISIDEDAVITIQSGPVVGKVAVSNDKTLAYGATINGANTVYVYKKSQAWVPSRLSDISSGTDVWAVALNGDNQWLYYVTANGRLGRIEVDNPTHNEILFEHNDFSGGPFAYIAYSAFEDCFYVTTDKNKILKVWVKEDGTHAYEQINQNNTGTTDGFLADEAKFQYLRGLTIDEDGNIFVCQGDNSHVIRKIAYDENMEKRYVTTVLGTSTVHGTDDGSPDIALFNGPQDISYDGNGGYWIAMRYEPALRKYSIELEHHHHHH”, the “soluble on expression in E. coli” value is “not soluble”.
As for “MEKIRQPTHAGSWYTDNPTKLSSDLEEWLNATGLTKSPDVRGVIAPHAGYSYSGRAAAYAFANIDPTNISRIFLLGPSHHFYTPKCALSTATVYKTPIGNLPVDVEMIKEIRAMGKFGMMDLRVDEAEHSMEMHLPYLAKVFEGNNVKVVPILVGAVSPENEAMYGELLAKYVDDPKNFFSVSSDFCHWGSRFNYMHYDNTHGAIHKSIEALDKKGMDIIETGDPDAFKKYLLEFENTICGRHPISIFLHMLKHSSSKIKINFLRYEQSSQCQTMRDSSVSYASAAAKLET”, the entry is “not soluble”; as for “MHEWALADAIVRTVLDYAQREGASRVKAVRVVLGELQDVAEDIVKFAMEQLFAGTIAEGAEIEFVEEEAVFKCRNCNYEWKLKEVKDKFDERIKEDIHFIPEVVHAFLACPKCGSHDFEVVKGRGVYVAGIKIEKEGGS”, “soluble”; as for “MCFHNSMSAKAIKVAARYGRQSDVVEIYQSILDEQYHVNAFTFPRYPIITSSDEVQVFNWGLIPFWVRSEEDATEIRKMTLNARADTIFEKPSFREPIMKKRCIVPSTGYFEWRHEGANKIPYYIYVKDEPIFSMAGIYDRWLDKDTGEEHETFSIITTDTNSLTDYIDNTKHRMPAILTQEEEEKWLNPSLSKAEIASLLKPFDTEKMDAYVIRNDFLKKSPNDPTIVQRALEHHHHHH”, “soluble”.
For the sequence “SMTEEQPVASWALSFERLLQDPLGLAYFTEFLKKEFSAENVTFWKACERFQQIPASDTQQLAQEARNIYQEFLSSQALSPVNIDRQAWLGEEVLAEPRPDMFRAQQLQIFNLMKFDSYARFVKSPLYRECLLAEAEGRPLREPGSSRLGSPDAT”, the “soluble on expression in E. coli” value is listed as “soluble”.
Then “MIEFDNLTYLHGKPQGTGLLKANPEDFVVVEDLGFEPDGEGEHILVRILKNGCNTRFVADALAKFLKIHSREVSFAGQKDKHAVTEQWLCARVPGKEMPDLSAFQLEGCQVLEYARHKRKLRLGALKGNAFTLVLREVSNRDDVEQRLIDICVKGVPNYFGAQRFGIGGSNLQGALRWAQTNTPVRDRNKRSFWLSAARSALFNQIVAERLKKADVNQVVDGDALQLAGRGSWFVATTEELAELQRRVNDKELMITAALPGSGEWGTQREALAFEQAAVAAETELQALLVREKVEAARRAMLLYPQQLSWNWWDDVTVEIRFWLPAGSFATSVVRELINTTGDYAHIAELEHHHHHH”, with “soluble”; and “MKLSGGVEWALHCCVVLSQAESPVPTARLAELHGVSKTYLAKHLQSLARAGLVHPTEGRDGGYVLTRAPEAITVLDVVQAVDGTEPAFRCTEIRRQGVLAAPPEQCRSACGIAKVMAGAEQAWRASLSSVTIADLGATIDLTVLKHILATSTT”, with “not soluble”; and “MTFTGLPPEDVPALMTGAVIPHPSVAGRADAYLPSPCIQNHAANLAFLPDGTLSCVWFGGTMEGMRDISIYMSRLPPGSGRWSEPEKMSDDPEKSEQNPLIFNAPDGKTWLLYTSQTSGNQDGSIVKCRISDDGGKTFGPVQILCDSPGTFVRQQIVVNDRGDWLLPIFRCVGLEGQRWSGDADTAAVLISRDGGASWQMRDIPDSIGAVHMNILPLGGCEMIAFYRNRFAETILSSRSADGGETWSPPEPTELPNNNSSIQATVLDNGGIAMVYNHSNATMSDARRQSLYDEIEGDECGENAAVVADAGRKAVWGVPRAPLSLAISRDGGRTFPHRIDLDTGDGFCLSNNSKDSLNREFSYPSVIEGSDGTLHVAYTYYRRALEHHHHHH”, with “not soluble”.
For “MAHHHHHHMAHVLQKCAHVLGISLSATGVYYAKGKMPYPATSSNEGTSSAESMGGSPGKAAKSNTVSAVKESQAATRKSKAQGNSVATAAVHTPSPPSSTEMNATNLDATSPCSSAAGPVGFFFDVGLHDLPNPPRDFDVTPSALAVDGTHSSANGAVIAVRDFVSHIPPFFVPVTEVVANMPGYTAEHLEVYLNVNSLELVTVAGERYVRLYGSFGDLSLSGSEVSEKRYAHYRPDVALVAAFEAAFEGIYDKWMPLPELLRRVGPDVTAQLPYQGPAAITYFAQMQHRFAFAVREVPTTGGGAAGALSSPQFTTEAAVLLRKPGYSGLEAHSTPTPKSFQALMSLVPGDTQVDIDVVRCQLTSEVRAELSRYYDGLEGFFAAHKPVFFVPPETPTVVMRMRYRLRTQRAKLPLEEQLRIATDARDKARIRSLRRKIAFRDDPSHPLHDPENLAKEVSKHLPRRGFVHLRIFLKRNVPEELLMYMPKRMRCFFNNYPQYFTQFEYQSAGTWCLCRPDQPLPRGVIRQNFSDGDLLRLIAEFLQQRGARAASMVHTNLPFGAQEVIRRRYGGVYFFVTRYPQYFNVVLKTDRQNVKSSAVVHLIQVPSQELSDATMAASAASLNNPNAPSHDDDDHESGDDDDDEDLDDGLD”, the “soluble on expression in E. coli” value is listed as “not soluble”.
As for “NAMPPIIKRRVMRKIIIASQNPAKVNAVRSAFSTVFPDQEWEFIGVSVPSEVADQPMSDEETKQGALNRVRNAKQRHPGAEYYVGLEAGIEENKTFAWMIVESDQQRGESRSACLMLPPLVLERLRQAKELGDVMDEVFGTENIKQKGGAIGLLTRHHLTRSTVYHQALILALIPFINPEHYPSA”, the entry is “soluble”; as for “MFYKEENFKKTEIGEIPEDWEIVELKDVCKKIKAGGTPKTSVEEYYKNGTIPFVKIEDITNSNKYLTNTKIKITEEGLNNSNAWIVPKNSVLFAMYGSIGETAINKIEVATNQAILGIIPKDNILESEFLYYILAKNKNYYSKLGMQTTQKNLNAQIVKSFKIPLPPLEEQKQIAKILTKIDEGIEIIEKSINKLERIKKGLMHKLLTKGIGHSRFKKSEIGEIPEDWEVFEIKDIFEVKTGTTPSTKKSEYWENGEINWITPLDLSRLNEKIYIGSSERKVTKIALEKCNLNLIPKGSIIISTRAPVGYVAVLTVESTFNQGCKGLFQKNNDSVNTEFYAYYLKFKKNLLENLSGGSTFKELSKSMLENFKIPLPPLEEQKQIAKILSSVDKSIELKKQKKEKLQRMKKKIMELLLTGKVRVKT”, “soluble”.
Take “MEKFIDENVAFGRMPYEDEIDELVEKFDAFVVLVEDFELVYDIEELKKKVDVLHSPIPDFTAPSLSQLYKIVKWIEEKVKEGKKVYIHCYGGSGRSGTVAVAWLMYSQGLSLREGLRRVRLLKPSAVETEDQLEVLREFERFLDTR”: the “soluble on expression in E. coli” value is reported as “soluble”.
As for “MAKEGSVAPKERINVTFKPATGGNQEEIELPLKLLAIGDYTHRRDERKVEDRKPISIDKTTFDEVLAKQELELTLSVPNRLQDEEGVAEELPVKLRVNSMKDFNPASLVEQVPELKKLMELRDALVALKGPLGNAPAFRKAIEGVLADDESRGRVLGELGLKAPAPDA”, the entry is “not soluble”; as for “MGSDKIHHHHHHMLLIDTHAHVLSPDRTTFPRDYGLDMAWARGDLSAQQLVAAMDESSISKTLLIQAYSAYRYDNSYLESVIGEFPDRFAGVCMVDPLARDVSDRLTSLIVDRKFAGTRIVIVQPEPRLDDPAMAPFYETCAELRTPLCVLTIPPKLKELEVPLSQWPSLQVVVEHLGLIHTASGDSVSKERPLLDLARFPNCILKFSTISLRVAAAFEGGAQGQFERLIDAFGAQRLMWGSDYPSTPEGGIPGLVNEMHQALDFLPHHDLALLSGEAACRIWSTLRPVSSRGLA”, “not soluble”; as for “MVLRDKMILLDENTKAIVQGITGRQGSFHTKKMLECGTKIVGGVTPGKGGQNVHGVPVFDTVKEAVKETDANASVIFVPAPFAKDAVFEAIDAGIELIVVITEHIPVHDTMEFVNYAEDVGVKIIGPNTPGIASPKVGKLGIIPMEVLKEGSVGMVSRSGTLTYEIAHQIKKAGFGVSTCVGIGGDPIVGLRYKEVLDLFEKDDETEAIVMIGEIGGGAEEEAAKFIEKMKKPVIGYIAGQSAPEGKRMGHAGAIVEKGKGTAESKMKALEEAGAYVAKNISDIPKLLAGILGK”, “soluble”.
Regarding “MSQGDSNPAAIPHAAEDIQGDDRWMSQHNRFVLDCKDKEPDVLFVGDSMVQLMQQYEIWRELFSPLHALNFGIGGDTTRHVLWRLKNGELENIKPKVIVVWVGTNNHENTAEEVAGGIEAIVQLINTRQPQAKIIVLGLLPRGEKPNPLRQKNAKVNQLLKVSLPKLANVQLLDTDGGFVHSDGAISCHDMFDFLHLTGGGYAKICKPLHELIMQLLEETPEEKQTTIA”, the “soluble on expression in E. coli” value is “soluble”.
As for “MMSTPPQNTRPVFSVDGLWKVFGPKAERVPADPELAALSAAELSERTGCTAAVRDVSFDVHKGEVFVVMGLSGSGKSTLVRCLTRLIEPTAGTIAIDGEDVRAMDRTRLRELRRHRASMVFQHFGLLPHRTVLDNVAYGLEIQGLGKAERRERAAEVVAKVGLEGMEQRKPGQLSGGQQQRVGLARALAVDPEVLLFDEPFSALDPLIRRDMQEEVVRLHREEGRTMVFITHDLNEALRLGDRIALMRDGRVVQLGTPEEIVGSPADDYVREFVRDVPREQVMTVRTAMRAASAEEAGSGPAVAPDATVSEAIEAVARAGSPARVVDSGRCVGVVDSEALLDVVAGVGASGPAPAVTAVPPFEPSRDFGNAGAGAAEAAPGDVTGEEVALEHHHHHH”, the “soluble on expression in E. coli” value is on record as “soluble”.
